Test results from US7169567B1, “Screening assay utilizing the PTH receptor” (The General Hospital Corporation, priority 1998, dated 2007).
Where no end group is shown, it is not given here.

Target: T1, intact rat PTH-1 receptor (rWT-HA) (Rattus norvegicus, UniProt P25961)
T1 construct: expressed in transfected cells; host or cells: COS-7, transient (DEAE-dextran), pCDNA-1 based plasmid
T1 sequence (P25961 23-591 E93Y/N94P/K95Y/T99D/G100Y/S101A limits assumed): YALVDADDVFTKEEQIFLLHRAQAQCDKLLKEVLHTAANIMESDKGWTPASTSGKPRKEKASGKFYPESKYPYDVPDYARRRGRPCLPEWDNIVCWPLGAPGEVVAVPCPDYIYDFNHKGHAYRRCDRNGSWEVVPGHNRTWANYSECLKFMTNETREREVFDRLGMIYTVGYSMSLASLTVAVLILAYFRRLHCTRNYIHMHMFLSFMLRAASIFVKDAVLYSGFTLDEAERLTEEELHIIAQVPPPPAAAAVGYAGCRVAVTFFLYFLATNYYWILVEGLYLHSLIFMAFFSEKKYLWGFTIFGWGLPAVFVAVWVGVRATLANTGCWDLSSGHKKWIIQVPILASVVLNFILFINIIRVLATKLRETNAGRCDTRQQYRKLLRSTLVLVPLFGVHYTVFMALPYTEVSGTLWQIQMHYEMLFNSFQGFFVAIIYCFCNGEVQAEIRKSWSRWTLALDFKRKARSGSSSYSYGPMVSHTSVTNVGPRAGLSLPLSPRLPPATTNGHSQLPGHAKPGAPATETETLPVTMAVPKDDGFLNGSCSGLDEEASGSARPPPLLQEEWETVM
Test: cAMP response in COS-7 cells transiently transfected with intact rat PTH-1 receptor (rWT-HA)
Format: cell-based
Details: COS-7 cells expressing rWT-HA
Description: FIG. 4. PTH Responses of Intact and Truncated PTH-1 Receptors in COS-7 Cells. Shown at the top are schematics of the intact (A) and truncated (B) rat PTH-1 receptors used for transient transfection of COS-7 cells, and subsequent cAMP response assays. The conserved extracellular cysteine residues are depicted as open circles and numbered according to sequence position, and the nine amino acids of the epitope tag (HA) in rWT-HA are shaded. The tics at residue 26 and 181 indicate the endpoints of the deletion in rΔNt. Based on the predicted signal peptide cleavage site at Ala-22, residues 23–25 in rΔNt are joined to residue 182. The cAMP responses of COS-7 cells expressing the intact receptor (C) and rΔNt (D) to rPTH(1–34) (J) or rPTH(1–14) (C) are also shown. The graphs show combined data (mean±s.e.m.) from five separate experiments, each performed in duplicate.
FIG. 5. Alanine-scan of PTH(1–14) with Intact and Truncated PTH Receptors. COS-7 cells transiently transfected with rWT-HA (A) or rCE I-G (B) were treated with 100 mM of native rat PTH(1–14) or 100 mM of a rPTH(1–14) analog containing a single alanine substitution for 1 h at 21° C., and the resulting intracellular cAMP levels were measured by RIA. The amino acid substitutions are indicated on the axis labels. Peptides were tested in duplicate, and a single experiment representative of three others is shown. […]

Question: For “PTH(1–14): Amino-terminal peptide fragment based on the rat PTH sequence, residues 1–14, C-terminally amidated (AVSEIQLMHNLGKH-NH2)”, which “potency relative to PTH(1–34) with rWT-HA” value is on record?
Answer: four to five orders of magnitude weaker
